IntAct's records for PubMed 23900285

B1: Peroxisomal biogenesis factor 3 (Saccharomyces cerevisiae), P28795 (parent)
chain: MAPNQRSRSLLQRHRGKVLISLTGIAALFTTGSVVVFFVKRWLYKQQLRITEQHFIKEQIKRRFEQTQEDSLYTIYELLPVWRMVLNENDLNLDSIVTQLKDQKNQLTRAKSSESRESSPLKSKAELWNELELKSLIKLVTVTYTVSSLILLTRLQLNILTRNEYLDSAIKLTMQQENCNKLQNRFYNWVTSWWSDPEDKADDAMVMAAKKSKKEGQEVYINEQAFLSLSWWILNKGWLSYNEIITNQIEIEFDGIHPRDTLTLEEFSSRLTNIFRNTNSQIFQQNNNNLTSILLPKDSSGQEFLLSQTLDADALTSFHSNTLVFNQLVNELTQCIESTATSIVLESLINESFHFIMNKVGIKTIAKKKPGQEDQQQYQMAVFAMSMKDCCQEMLQTTAGSSHSGSVNEYLATLDSVQPLDDLSASVYSNFGVSSSFSFKP
partner: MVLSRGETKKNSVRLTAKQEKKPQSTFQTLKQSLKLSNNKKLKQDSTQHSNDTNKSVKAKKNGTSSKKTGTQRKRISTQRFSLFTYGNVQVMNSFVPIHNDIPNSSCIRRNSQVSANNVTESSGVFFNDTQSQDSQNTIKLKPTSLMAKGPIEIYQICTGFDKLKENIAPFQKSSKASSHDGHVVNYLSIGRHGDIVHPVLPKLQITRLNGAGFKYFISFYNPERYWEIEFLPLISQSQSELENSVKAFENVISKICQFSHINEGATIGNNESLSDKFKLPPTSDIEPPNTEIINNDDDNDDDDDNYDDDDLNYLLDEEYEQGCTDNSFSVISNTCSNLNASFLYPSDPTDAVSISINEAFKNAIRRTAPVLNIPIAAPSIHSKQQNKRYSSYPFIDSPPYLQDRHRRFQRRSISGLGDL

Variants of: B1
Conditions: with inp1_yeast INP1, Q03694

| effect of a mutation on the interaction | Variant |
| --- | --- |
| disrupting interaction | MAPNQRSRSLLQRHRGKVLISLTGIAALFTTGSVVVFFVKRWLYKQQLRITEQHFIKEQIKRRFEQTQEDSLYTIYELLPEWRMVLNENDLNLDSIVTQLKDQKNQLTRAKSSESRESSPLKSKAELWNELELKSLIKLVTVTYTVSSLILLTRLQLNILTRNEYLDSAIKLTMQQENCNKLQNRFYNWVTSWWSDPEDKADDAMVMAAKKSKKEGQEVYINEQAFLSLSWWILNKGWLSYNEIITNQIEIEFDGIHPRDTLTLEEFSSRLTNIFRNTNSQIFQQNNNNLTSILLPKDSSGQEFLLSQTLDADALTSFHSNTLVFNQLVNELTQCIESTATSIVLESLINESFHFIMNKVGIKTIAKKKPGQEDQQQYQMAVFAMSMKDCCQEMLQTTAGSSHSGSVNEYLATLDSVQPLDDLSASVYSNFGVSSSFSFKP [V81E] |

Variants of: B1
Conditions: with inp1_yeast INP1, Q03694
Remark: another data set of the same source

| effect of a mutation on the interaction | Variant |
| --- | --- |
| decreasing interaction | MAPNQRSRSLLQRHRGKVLISLTGIAALFTTGSVVVFFVKRWLYKQQLRITEQHFIKEQIKRRFEQTQEDSLYTIYELLPVWRMVLNENDLNLDSIVTQLKDQKNQLTRAKSSESRESSPLKSKAELWNELELKSLIKLVTVTYTVSSLILLTRLQLNILTRNEYLDSAIKLTMQQENCNKLQNRFYIWVTSWWSDPEDKADDAMVMAAKKSKKEGQEVYINEQAFLSLSWWILNKGWLSYNEIITNQIEIEFDGIHPRDTLTLEEFSSRLTNIFRNTNSQIFQQNNNNLTSILLPKDSSGQEFLLSQTLDADALTSFHSNTLVFNQLVNELTQCIESTATSIVLESLINESFHFIMNKVGIKTIAKKKPGQEDQQQYQMAVFAMSMKDCCQEMLQTTAGSSHSGSVNEYLATLDSVQPLDDLSASVYSNFGVSSSFSFKP [N188I] |
